PMC5014761

Target: Δ25 FLAG-MRNIP (human) (UniProt Q6NTE8)
Test: co-IP; 1 mg whole-cell extract (20 mM Tris-HCl pH 7.5, 150 mM NaCl, 1% Triton X-100, 1 mM DTT, 1 mM EDTA, Benzonase) with M2 anti-FLAG beads 16 hr at 4°C; eluted with FLAG peptide or by heating; immunoblot; HEK293 stable, tetracycline-inducible or transiently transfected cells; in Figure 2D cells exposed to the indicated doses of IR

Sequence of UniProt Q6NTE8 (Q6NTE8 whole entry, stated change not applied): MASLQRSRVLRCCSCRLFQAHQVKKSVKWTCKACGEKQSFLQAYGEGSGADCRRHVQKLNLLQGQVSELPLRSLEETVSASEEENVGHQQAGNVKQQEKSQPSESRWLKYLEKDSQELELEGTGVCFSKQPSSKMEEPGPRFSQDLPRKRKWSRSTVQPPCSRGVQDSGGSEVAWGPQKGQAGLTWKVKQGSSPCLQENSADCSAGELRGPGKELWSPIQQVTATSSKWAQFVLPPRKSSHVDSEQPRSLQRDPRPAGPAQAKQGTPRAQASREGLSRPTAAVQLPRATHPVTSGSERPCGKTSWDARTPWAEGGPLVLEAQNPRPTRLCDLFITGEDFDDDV

percent reduced binding compared to WT MRNIP: 50 to 70%
Substance: the MRN complex
